From article PMC4522657, “Identification of a DYRK1A Inhibitor that Induces Degradation of the Target Kinase using Co-chaperone CDC37 fused with Luciferase nanoKAZ” (Scientific Reports, 2015) come the findings set out here.

For one assay, the target named is CDC37 (CDC37-nanoKAZ) (UniProt Q16543). As to the kind of experiment: anti-FLAG plate capture, luciferase-fusion luminescence. The note with it: reference: wild type.
A further assay addresses HSP90β (nanoKAZ-HSP90β) (UniProt P08238). The description is as above. Conditions: reference: wild type.

For “DYRK1A (from UniProt Q13627) K188R kinase-dead (no autophosphorylation)”, the fold change with CDC37 (CDC37-nanoKAZ) turned out to be 17; in the assay with HSP90β (nanoKAZ-HSP90β), 10.

In the assay with CDC37 (CDC37-nanoKAZ) (sites Y111), DYRK1A (from UniProt Q13627) Y111F yielded a fold change of 1.4.

As to “DYRK1A (from UniProt Q13627) Y145F/Y147F”, the fold change in the assay with CDC37 (CDC37-nanoKAZ) (sites Y145,Y147) was found to be 2.4.

In the assay with CDC37 (CDC37-nanoKAZ) (sites Y159), DYRK1A (from UniProt Q13627) Y159F displayed a fold change of 8.4.

Turning to “DYRK1A (from UniProt Q13627) Y319F/Y321F”, the fold change turned out to be 8 with CDC37 (CDC37-nanoKAZ) (sites Y319,Y321) and 3.8 with HSP90β (nanoKAZ-HSP90β) (sites Y319,Y321).
